Experimental data: US20150231240A1, “ANTI-C16ORF54 ANTIBODIES AND METHODS OF USE THEREOF” (priority 2012, published 2015)

T1: extracellular domain of c16orf54 (amino acids 1-31) fused to human IgG1 Fc (Homo sapiens, UniProt Q6UWD8)
T1 construct: the extracellular domain of c16orf54 (amino acids 1-31) either N terminal or C-terminal to a human IgG1 Fc domain; made in house; host or cells: 293 T cells, transient; Protein A purification
T1 sequence (Q6UWD8 1-31 limits assumed): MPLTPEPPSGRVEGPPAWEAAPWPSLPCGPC

T2: human C16orf54 extracellular domain peptides (Homo sapiens, UniProt Q6UWD8)
T2 sequence (Q6UWD8 1-31): T1 sequence (Q6UWD8 1-31 limits assumed)

T3: human C16orf54 (Homo sapiens, UniProt Q6UWD8)
T3 construct: expressed in transfected cells; host or cells: murine sarcoma cells (D42M1-huC16orf54)
T3 sequence (Q6UWD8 1-224): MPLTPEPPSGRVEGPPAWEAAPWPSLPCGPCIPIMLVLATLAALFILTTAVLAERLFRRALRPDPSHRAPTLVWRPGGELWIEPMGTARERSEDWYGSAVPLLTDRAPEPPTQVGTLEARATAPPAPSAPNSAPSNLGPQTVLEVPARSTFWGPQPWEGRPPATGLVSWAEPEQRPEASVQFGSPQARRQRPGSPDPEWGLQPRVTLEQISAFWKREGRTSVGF

T4: N-terminal 32 amino acids of huC16orf54 (Homo sapiens, UniProt Q6UWD8)
T4 sequence (Q6UWD8 1-32 limits assumed): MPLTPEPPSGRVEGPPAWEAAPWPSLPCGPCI

T5: huC16orf54 (cells expressing C16orf54) (Homo sapiens, UniProt Q6UWD8)
T5 construct: expressed in transfected cells; host or cells: murine sarcoma cell line, retrovirally transduced (inferred from b529 and b531; b587 says only 'cells expressing C16orf54')
T5 sequence (Q6UWD8 1-224): T3 sequence (Q6UWD8 1-224)

B1: R29-8-58C: murine anti-C16orf54 monoclonal antibody; VH SEQ ID NO: 40, VL SEQ ID NO: 42 (antibody, V domains shown)
VH: MNFGFSLIFLVLVSKGVQCEVKLVESGGGLVKPGGSLKFSCAASGFTFSSYAVSWVRQTPEKRLEWVASITSGGRSYYPDSVKGRFTISRDNARSMLYLHMSSLRSEDTAMYYCTRGWDENDLWGQGTTLTVSS
VL: MKLPVRLLVLMFWIPASSSDVVMTQTPLSLFVSLGDQASISCRSSQSLLYSNGNTYLHWYLQRPGQSPQLLIYKVSNRFSGVPDRFSGSGSGTDFTLKISRVEAEDLGVYFCSQTTHVPWTFGGGTKLEIK
modifications: R29-8-58C heavy chain variable region; R29-8-58C light chain variable region
B2: R29-8-75B: murine anti-C16orf54 monoclonal antibody; VH SEQ ID NO: 56, VL SEQ ID NO: 58 (antibody, V domains shown)
VH: MDSRLNLVFLVLILKGVQCDVQLVESGGGLVQPGGSRKLSCAASGFTFSRFGMHWVRQAPEKGLEWVAYISSGSSTIYYADTVKGRFTISRDNPKNTLFLQMTSLRSEDTAMYYCARVDYDVALAYWGQGTLVTVSA
VL: MKLPVRLLVLMFWIPASSSGVLMTQTPLSLPVSLGDQASISCRSSQSIVHRNGNTYLEWYLQKPGQSPKLLIYKVSNRFSGVPDRFSGSGSGTDFTLKISRVEAEDLGVYYCFQGSQWTFGGGTKLEIK
modifications: R29-8-75B heavy chain variable region; R29-8-75B light chain variable region
B3: R29-7-2A: murine anti-C16orf54 monoclonal antibody, IgG2b; VH SEQ ID NO: 4, VL SEQ ID NO: 6 (antibody, V domains shown)
VH: MLLGLKWVFFVVFYQGVPCEVQLVESGGGLIQPKGSLKLSCVASGFSFNTHAMNWVRQAPGKGLEWVARIRSKSNNYARYYADSVKDRFTISRDDSQSILYLQMNNLKTEDTAMYYCVKQGDGGFAYWGQGTLVTVSA
VL: MDSQAQVLMLLLLWVSGTCGDIVMSQSPSSLAVSVGEKVTMSCKSSQSLLYSSNQKNYLAWYQQRPGQSPKLLIYWASARESGVPDRFTGSGSGTDFTLTISSVKAEDLAVYYCQQYYSYPPTFGAGTKVELK
modifications: R29-7-2A heavy chain variable region; R29-7-2A light chain variable region

Legend:
[1] = system: cyno C16orf54; assay: Flow cytometry cross-reactivity with sarcoma cells expressing cyno C16orf54 (fold change over isotype); assay type: binding, cynomolgous monkeys; conditions: 10 μg/ml antibody
Protocol: (§1) Anti-C16orf54 antibodies which bound to human C16orf54 were tested for their reactivity with human C16orf54 and their crossreactivity with C16orf54 from cynomolgous monkeys (cyno C16orf54) using flow cytometry. Sarcoma cells transfected with and expressing human C16orf54 or cyno C16orf54 were washed with PBS with 0.1% BSA, incubated with FcX receptor blocking solution (BioLegend) for 15 minutes, incubated with 10 μg/ml of anti-C16orf54 antibody for 1 hour at 4° C., washed twice with PBS with 0.1% BSA, incubated with 20 μg/ml of R-Phycoerythrin-AffiniPure F(ab′)2 Fragment Goat Anti-Mouse IgG, Fcγ Fragment Specific (Jackson ImmunoResearch) for 30 minutes at 4° C., washed twice with PBS with 0.1% BSA, incubated with the viability dye TO-PRO-3 iodide (Life Technologies), and immediately analyzed on a MACSQuant Analyzer instrument (Miltenyi). For each cell line and anti-C16orf54 antibody, a fold change was derived by dividing the median fluorescence intensity for Phycoerythrin in the live cell population for the anti-C16orf54 antibody by the median fluorescence intensity for Phycoerythrin in the live cell population for the IgG isotype control antibody.

[2] = system: cyno C16orf54 extracellular domain peptides; assay: C16orf54 peptide ELISA, cyno extracellular domain peptides; assay type: binding; conditions: 10 μg/ml antibody
Protocol: (§2) Anti-C16orf54 antibodies which bind to human C16orf54, including antibodies that are crossreactive with cyno C16orf54, were tested for their binding to various peptides derived from C16orf54 in a peptide ELISA. A 384-well high binding black microplate (Greiner) was incubated with 2 μg/ml of protein (human, cyno, or mouse extracellular domain peptides) for 16 hours, incubated for 1 hr with a blocking buffer (PBS with 5% Fetal Bovine Serum), washed four times with TBS with Tween, incubated for 1 hour with 10 μg/ml of anti-C16orf54 antibody, washed four times with TBS with Tween, incubated for 1 hour with 10 μg/ml of Peroxidase-AffiniPure Goat Anti-Mouse IgG, Fcγ Fragment Specific (Jackson ImmunoResearch), washed four times with TBS with Tween, and peroxidase was detected with a luminometer (Molecular Devices) upon addition of SuperSignal® ELISA Pico Chemiluminescent Substrate (Thermo Scientific). The luminescence signal was determined.

[3] = target: T1, extracellular domain of c16orf54 (amino acids 1-31) fused to human IgG1 Fc; assay: C16orf54 peptide-Fc fusion protein ELISA; assay type: binding; conditions: serial dilution of antibody; HRP-conjugated anti mouse secondary
Protocol: Anti-C16orf54 antibodies which bind to human C16orf54, including antibodies that are crossreactive with cyno C16orf54, were tested for their binding to various peptides derived from C16orf54 that were fused to human IgG (e.g., IgG1) constant regions to generate various peptide-Fc fusion proteins in an Fc-based ELISA. An exemplary Fc sequence comprises an IgG1 Hinge region sequence and IgG1 CH3 and […] domain sequences.
The fusion proteins were transiently expressed in 293 T cells. Protein was purified from the 293 expression supernatants by Protein A-based affinity purification. Exemplary C16 peptide-Fc fusion constructs that were made and purified are shown with their protein yield in Table 38. ELISA assays were performed by coating 384 well plates with the fusion proteins overnight at 4C. Antibodies were analyzed by serial dilution with concentrations ranging from 40 ug/mL to […]. Binding was detected with an HRP-conjugated anti mouse secondary antibody.

[4] = system: human C16orf54 extracellular domain peptides; assay: C16orf54 peptide ELISA, human extracellular domain peptides; assay type: binding; conditions: human, cyno, or mouse extracellular domain peptides, not told apart; 10 μg/ml antibody
Protocol: as §2

[5] = target: T2, human C16orf54 extracellular domain peptides; assay: as above; assay type: binding; conditions: peptide ELISA, 10 μg/ml antibody
Protocol: as §2

[6] = system: C16orf54 ECD peptides; assay: Peptide crossblocking (Table 36); assay type: binding
[7] = target: T3, human C16orf54; assay: Flow cytometry reactivity with sarcoma cells expressing human C16orf54 (fold change over isotype); assay type: binding
Protocol: as §1

[8] = target: T4, N-terminal 32 amino acids of huC16orf54; assay: Affinity measurements of purified antibodies on OctetQK384; assay type: binding; conditions: purified antibody, streptavidin sensors coated with N-terminal 32 amino acids of huC16orf54 coupled to biotin
Protocol: Affinity measurements of purified anti-huC16orf54 antibodies were carried out on the OctetQK384® sytem (ForteBio). After coating streptavidin sensors with the N-terminal 32 amino acids of huC16orf54 coupled to biotin at the C-terminus, association and dissociation of purified anti-huC16orf54 antibodies was monitored. KD values were derived using ForteBio's software.

[9] = target: T4, N-terminal 32 amino acids of huC16orf54; assay: Off-rate screen of hybridoma supernatants on OctetQK384 (biolayer interferometry); assay type: binding; conditions: calculated off-rate
Protocol: Eight anti-huC16orf54 monoclonal antibodies were further screened for binding and subsequent off-rate analysis using the OctetQK384® sytem (ForteBio). Hybridoma supernatants were screened for association to and dissocation from streptavidin sensors coated with the N-terminal 32 amino acids of huC16orf54 coupled to biotin, and the calculated offrates (kdis) are shown in Table 31. Cloned hybridomas with […] off-rates were carried forward for antibody purification.

[10] = target: T5, huC16orf54 (cells expressing C16orf54); assay: Competition ELISA to establish relative binding properties; conditions: hybridoma supernatant; 2 hours with competing mixture of antibodies of a different isotype
Protocol: Another competition ELISA was performed to establish relative binding properties. Individual anti-huC16orf54 isotyped (e.g., IgG2a) antibody containing hybridoma supernatants were allowed to bind to huC16orf54 in individual wells of an ELISA plate containing cells expressing C16orf54. After 30 min, the wells were washed. Then individual wells of the ELISA plate were incubated for 2 hours with either buffer or a competing mixture of anti-huC16orf54 isotyped antibodies (of a different isotype, e.g., IgG1 and IgG2b in the case of an IgG2a antibody). After washing, the wells were incubated with a specific secondary antibody (for example, Jackson Immunologicals Goat×IgG2a HRP—Product#115-035-206) and detected with SuperSignal® ELISA Pico Chemiluminescent substrate (Thermo Scientific—Product#37069). For each anti-huC16orf54 isotyped (e.g., IgG2a) antibody containing hybridoma supernatant, relative binding properties were calculated as follows: [(Average luminescence in wells incubated with buffer)−(Average luminescence in wells incubated with mixture of anti-huC16orf54 isotyped antibodies of a different isotype)]/[(Average luminescence in wells incubated with buffer)].

[11] = system: KG-1 (acute myeloid leukemia) xenograft; assay type: in vivo, NOD-SCID mice
Protocol: Subcutaneous tumors are generated by injection of 1×10^7 cancer cells in a mixture of PBS (without magnesium or calcium) and BD Matrigel™ (BD Biosciences) at a 1:1 ratio in the right flank of female SCID or nu^−/− mice. The injected total volume per mouse is […] with 50% being Matrigel (BD Biosciences). Mice are randomized once tumors reach a size between 65-200 mm^3. Antibodies are administered weekly, and body weights and tumors are measured once and twice weekly, respectively. Tumor volume is calculated as described (van der Horst et al. (2009) Neoplasia 11: 355-364). As a negative control, mice are injected with either purified mouse IgG or PBS; or a purified monoclonal antibody that recognizes an antigen other than C16orf54.
Anti-C16orf54 antibodies were tested for their anti-tumor activity in an animal-tumor model. For these studies, the cell line KG-1 (acute myeloid leukemia) was obtained from ATCC and cultured according to the suppliers' protocols. Animals were obtained from Taconic (Hudson, N.Y.). Studies were conducted with anti-C16orf54 antibodies and antibody-drug conjugates (ADCs) of these antibodies.
In these experiments, 4-6 week-old immunodeficient NOD-SCID female mice were used for the KG-1 tumor model. Mice were subcutaneously injected on the right flank with 6×10^6 viable cells (KG-1) in a mixture of PBS (without magnesium or calcium) and BD Matrigel™ (BD Biosciences). Once the tumor reached a size between 65-200 mm^3 mice were randomized. Anti-C16orf54 antibodies were administered weekly, and bodyweights and tumors were measured once and twice weekly, respectively. Tumor volume was calculated as described (van der Horst et al., supra). Experiments were performed on groups of at least eight animals per experimental point.
Statistical significance between treatment and control groups was calculated using the Graphpad Prism® software package and applying Student's two-tailed t-test. A p-value of less than 0.05 was considered significant.

Sequence of cyno C16orf54 extracellular domain peptides (as listed by the source): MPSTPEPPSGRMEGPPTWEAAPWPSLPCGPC
Sequence of cyno C16orf54 (as listed by the source): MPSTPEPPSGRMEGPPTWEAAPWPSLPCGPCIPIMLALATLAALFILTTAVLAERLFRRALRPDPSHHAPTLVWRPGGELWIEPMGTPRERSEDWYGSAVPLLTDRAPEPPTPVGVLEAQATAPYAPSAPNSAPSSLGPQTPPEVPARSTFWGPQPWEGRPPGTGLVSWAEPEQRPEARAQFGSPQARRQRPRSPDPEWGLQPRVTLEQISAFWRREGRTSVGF

Molecule | Median fold change relative to IgG control in F279-cyno-C16orf54 cells [1] | Cyno ECD bound by antibody [2] | binding to peptide-Fc fusion proteins (Fc-based ELISA) [3] | binding to peptides derived from the extracellular domain of C16orf54 (peptide ELISA) [4] | Human ECD & ECD fragments bound by antibody [5] | Peptide crossblocking [6] | binding to C16orf54-expressing cells (dual binders) [7] | kdis [8] | kon [8] | binding to human C16orf54 (flow cytometry) ([7]; sarcoma cells expressing human C16orf54, 10 μg/ml antibody) | kdis [9] | relative binding properties: signal loss upon incubation with competition mixture [10] | tumor growth inhibition (in words) ([11]; KG-1 xenograft, compared to control IgG, antibodies weekly) | TGI (tumor growth inhibition) ([11]; Table 42, KG-1 AML model, NOD-SCID mice, weekly administration) | Mean (tumor volume) ([11]; Table 42, KG-1 AML model, NOD-SCID mice, weekly administration, in mm³ (unit assumed))
B1 | 1.4 |  |  |  |  |  |  |  |  |  |  |  |  |  | 
B2 |  | aa1-31 | able to bind to the peptide-Fc fusion proteins | bind to the various peptides derived from the extracellular domain (ECD) of C16orf54 | aa1-31, aa1-15, aa9-24 | aa1-31, aa9-24 | bind to C16orf54-expressing cells |  |  |  |  |  |  |  | 
B3 |  |  |  | bind to the various peptides derived from the extracellular domain (ECD) of C16orf54 | aa1-31, aa1-15, aa9-24 | aa1-31 | bind to C16orf54-expressing cells | 4.12e-05 ± 9.7e-06 s⁻¹ | 31900 ± 4600 M⁻¹ s⁻¹ | bind human C16orf54 | 0.00707 s⁻¹ | little signal loss upon incubation with the competition mixture | did not induce any statistically significant tumor growth inhibition | −17% | 2572.5
